Reference: patent US12679878B2, “CRF2 receptor agonists and their use in therapy” (SANOFI, priority 2020, dated 2026)
Starred links: 1 amine or outer side, 2 acyl side, 3 side chain; linkers in the order of their positions; H or OH if unused. Non-standard residues stand in square brackets, D forms with d. Groups on a side chain read outwards from the residue. No end group written: not given here. *: point of attachment. C18 diacid = O=C(O)CCCCCCCCCCCCCCCCC(=O)*; γGlu = O=C(O)[C@H](CCC(=O)[*:2])N[*:1]; AEEA = NCCOCCOCC(=O)O; Aib = CC(C)(N)C(=O)O

B1: SEQ ID NO: 145 (peptide)
peptide: FTLSLDVPTKIK([AEEA-AEEA-γGlu-C18 diacid])QILLKQERQKKQRQKAKKNKQILERV-NH2
modifications: N-terminus assumed
SMILES: CC[C@H](C)[C@H](NC(=O)[C@H](CCC(N)=O)NC(=O)[C@H](CCCCN)NC(=O)[C@H](CC(N)=O)NC(=O)[C@H](CCCCN)NC(=O)[C@H](CCCCN)NC(=O)[C@H](C)NC(=O)[C@H](CCCCN)NC(=O)[C@H](CCC(N)=O)NC(=O)[C@H](CCCNC(=N)N)NC(=O)[C@H](CCC(N)=O)NC(=O)[C@H](CCCCN)NC(=O)[C@H](CCCCN)NC(=O)[C@H](CCC(N)=O)NC(=O)[C@H](CCCNC(=N)N)NC(=O)[C@H](CCC(=O)O)NC(=O)[C@H](CCC(N)=O)NC(=O)[C@H](CCCCN)NC(=O)[C@H](CC(C)C)NC(=O)[C@H](CC(C)C)NC(=O)[C@@H](NC(=O)[C@H](CCC(N)=O)NC(=O)[C@H](CCCCNC(=O)COCCOCCNC(=O)COCCOCCNC(=O)CC[C@H](NC(=O)CCCCCCCCCCCCCCCCC(=O)O)C(=O)O)NC(=O)[C@@H](NC(=O)[C@H](CCCCN)NC(=O)[C@@H](NC(=O)[C@@H]1CCCN1C(=O)[C@@H](NC(=O)[C@H](CC(=O)O)NC(=O)[C@H](CC(C)C)NC(=O)[C@H](CO)NC(=O)[C@H](CC(C)C)NC(=O)[C@@H](NC(=O)[C@@H](N)Cc1ccccc1)[C@@H](C)O)C(C)C)[C@@H](C)O)[C@@H](C)CC)[C@@H](C)CC)C(=O)N[C@@H](CC(C)C)C(=O)N[C@@H](CCC(=O)O)C(=O)N[C@@H](CCCNC(=N)N)C(=O)N[C@H](C(N)=O)C(C)C
B2: SEQ ID NO: 146 (peptide)
peptide: FTLSLDVPIKLK([AEEA-AEEA-γGlu-C18 diacid])QILLKQERQKKQRQKAKKNKQILERV-NH2
modifications: N-terminus assumed
SMILES: CC[C@H](C)[C@H](NC(=O)[C@H](CCC(N)=O)NC(=O)[C@H](CCCCNC(=O)COCCOCCNC(=O)COCCOCCNC(=O)CC[C@H](NC(=O)CCCCCCCCCCCCCCCCC(=O)O)C(=O)O)NC(=O)[C@H](CC(C)C)NC(=O)[C@H](CCCCN)NC(=O)[C@@H](NC(=O)[C@@H]1CCCN1C(=O)[C@@H](NC(=O)[C@H](CC(=O)O)NC(=O)[C@H](CC(C)C)NC(=O)[C@H](CO)NC(=O)[C@H](CC(C)C)NC(=O)[C@@H](NC(=O)[C@@H](N)Cc1ccccc1)[C@@H](C)O)C(C)C)[C@@H](C)CC)C(=O)N[C@@H](CC(C)C)C(=O)N[C@@H](CC(C)C)C(=O)N[C@@H](CCCCN)C(=O)N[C@@H](CCC(N)=O)C(=O)N[C@@H](CCC(=O)O)C(=O)N[C@@H](CCCNC(=N)N)C(=O)N[C@@H](CCC(N)=O)C(=O)N[C@@H](CCCCN)C(=O)N[C@@H](CCCCN)C(=O)N[C@@H](CCC(N)=O)C(=O)N[C@@H](CCCNC(=N)N)C(=O)N[C@@H](CCC(N)=O)C(=O)N[C@@H](CCCCN)C(=O)N[C@@H](C)C(=O)N[C@@H](CCCCN)C(=O)N[C@@H](CCCCN)C(=O)N[C@@H](CC(N)=O)C(=O)N[C@@H](CCCCN)C(=O)N[C@@H](CCC(N)=O)C(=O)N[C@H](C(=O)N[C@@H](CC(C)C)C(=O)N[C@@H](CCC(=O)O)C(=O)N[C@@H](CCCNC(=N)N)C(=O)N[C@H](C(N)=O)C(C)C)[C@@H](C)CC
B3: SEQ ID NO: 147 (peptide)
peptide: IVLSLD[dV]PIGLK([AEEA-AEEA-γGlu-C18 diacid])QILLKQERQKK[Aib]REQAETNKQILAQV-NH2
modifications: N-terminus assumed
SMILES: CC[C@H](C)[C@H](N)C(=O)N[C@H](C(=O)N[C@@H](CC(C)C)C(=O)N[C@@H](CO)C(=O)N[C@@H](CC(C)C)C(=O)N[C@@H](CC(=O)O)C(=O)N[C@@H](C(=O)N1CCC[C@H]1C(=O)N[C@H](C(=O)NCC(=O)N[C@@H](CC(C)C)C(=O)N[C@@H](CCCCNC(=O)COCCOCCNC(=O)COCCOCCNC(=O)CC[C@H](NC(=O)CCCCCCCCCCCCCCCCC(=O)O)C(=O)O)C(=O)N[C@@H](CCC(N)=O)C(=O)N[C@H](C(=O)N[C@@H](CC(C)C)C(=O)N[C@@H](CC(C)C)C(=O)N[C@@H](CCCCN)C(=O)N[C@@H](CCC(N)=O)C(=O)N[C@@H](CCC(=O)O)C(=O)N[C@@H](CCCNC(=N)N)C(=O)N[C@@H](CCC(N)=O)C(=O)N[C@@H](CCCCN)C(=O)N[C@@H](CCCCN)C(=O)NC(C)(C)C(=O)N[C@@H](CCCNC(=N)N)C(=O)N[C@@H](CCC(=O)O)C(=O)N[C@@H](CCC(N)=O)C(=O)N[C@@H](C)C(=O)N[C@@H](CCC(=O)O)C(=O)N[C@H](C(=O)N[C@@H](CC(N)=O)C(=O)N[C@@H](CCCCN)C(=O)N[C@@H](CCC(N)=O)C(=O)N[C@H](C(=O)N[C@@H](CC(C)C)C(=O)N[C@@H](C)C(=O)N[C@@H](CCC(N)=O)C(=O)N[C@H](C(N)=O)C(C)C)[C@@H](C)CC)[C@@H](C)O)[C@@H](C)CC)[C@@H](C)CC)C(C)C)C(C)C
B4: SEQ ID NO: 148 (peptide)
peptide: IVLSLDVPIGLK([AEEA-AEEA-γGlu-C18 diacid])QILLKQERQKK[Aib]REQAETNKRILERV-NH2
modifications: N-terminus assumed
SMILES: CC[C@H](C)[C@H](N)C(=O)N[C@H](C(=O)N[C@@H](CC(C)C)C(=O)N[C@@H](CO)C(=O)N[C@@H](CC(C)C)C(=O)N[C@@H](CC(=O)O)C(=O)N[C@H](C(=O)N1CCC[C@H]1C(=O)N[C@H](C(=O)NCC(=O)N[C@@H](CC(C)C)C(=O)N[C@@H](CCCCNC(=O)COCCOCCNC(=O)COCCOCCNC(=O)CC[C@H](NC(=O)CCCCCCCCCCCCCCCCC(=O)O)C(=O)O)C(=O)N[C@@H](CCC(N)=O)C(=O)N[C@H](C(=O)N[C@@H](CC(C)C)C(=O)N[C@@H](CC(C)C)C(=O)N[C@@H](CCCCN)C(=O)N[C@@H](CCC(N)=O)C(=O)N[C@@H](CCC(=O)O)C(=O)N[C@@H](CCCNC(=N)N)C(=O)N[C@@H](CCC(N)=O)C(=O)N[C@@H](CCCCN)C(=O)N[C@@H](CCCCN)C(=O)NC(C)(C)C(=O)N[C@@H](CCCNC(=N)N)C(=O)N[C@@H](CCC(=O)O)C(=O)N[C@@H](CCC(N)=O)C(=O)N[C@@H](C)C(=O)N[C@@H](CCC(=O)O)C(=O)N[C@H](C(=O)N[C@@H](CC(N)=O)C(=O)N[C@@H](CCCCN)C(=O)N[C@@H](CCCNC(=N)N)C(=O)N[C@H](C(=O)N[C@@H](CC(C)C)C(=O)N[C@@H](CCC(=O)O)C(=O)N[C@@H](CCCNC(=N)N)C(=O)N[C@H](C(N)=O)C(C)C)[C@@H](C)CC)[C@@H](C)O)[C@@H](C)CC)[C@@H](C)CC)C(C)C)C(C)C
B5: SEQ ID NO: 16 (peptide)
peptide: IVLSLDVPIGLK([AEEA-AEEA-γGlu-C18 diacid])QKLLKQQRQRKERQQAEKNARILARV-NH2
modifications: N-terminus assumed
SMILES: CC[C@H](C)[C@H](N)C(=O)N[C@H](C(=O)N[C@@H](CC(C)C)C(=O)N[C@@H](CO)C(=O)N[C@@H](CC(C)C)C(=O)N[C@@H](CC(=O)O)C(=O)N[C@H](C(=O)N1CCC[C@H]1C(=O)N[C@H](C(=O)NCC(=O)N[C@@H](CC(C)C)C(=O)N[C@@H](CCCCNC(=O)COCCOCCNC(=O)COCCOCCNC(=O)CC[C@H](NC(=O)CCCCCCCCCCCCCCCCC(=O)O)C(=O)O)C(=O)N[C@@H](CCC(N)=O)C(=O)N[C@@H](CCCCN)C(=O)N[C@@H](CC(C)C)C(=O)N[C@@H](CC(C)C)C(=O)N[C@@H](CCCCN)C(=O)N[C@@H](CCC(N)=O)C(=O)N[C@@H](CCC(N)=O)C(=O)N[C@@H](CCCNC(=N)N)C(=O)N[C@@H](CCC(N)=O)C(=O)N[C@@H](CCCNC(=N)N)C(=O)N[C@@H](CCCCN)C(=O)N[C@@H](CCC(=O)O)C(=O)N[C@@H](CCCNC(=N)N)C(=O)N[C@@H](CCC(N)=O)C(=O)N[C@@H](CCC(N)=O)C(=O)N[C@@H](C)C(=O)N[C@@H](CCC(=O)O)C(=O)N[C@@H](CCCCN)C(=O)N[C@@H](CC(N)=O)C(=O)N[C@@H](C)C(=O)N[C@@H](CCCNC(=N)N)C(=O)N[C@H](C(=O)N[C@@H](CC(C)C)C(=O)N[C@@H](C)C(=O)N[C@@H](CCCNC(=N)N)C(=O)N[C@H](C(N)=O)C(C)C)[C@@H](C)CC)[C@@H](C)CC)C(C)C)C(C)C
B6: SEQ ID NO: 149 (peptide)
peptide: IVLSLD[dV]PIKLK([AEEA-AEEA-γGlu-C18 diacid])QILLKQERQKK[Aib]REQAETNKRILERV-NH2
modifications: N-terminus assumed
SMILES: CC[C@H](C)[C@H](N)C(=O)N[C@H](C(=O)N[C@@H](CC(C)C)C(=O)N[C@@H](CO)C(=O)N[C@@H](CC(C)C)C(=O)N[C@@H](CC(=O)O)C(=O)N[C@@H](C(=O)N1CCC[C@H]1C(=O)N[C@H](C(=O)N[C@@H](CCCCN)C(=O)N[C@@H](CC(C)C)C(=O)N[C@@H](CCCCNC(=O)COCCOCCNC(=O)COCCOCCNC(=O)CC[C@H](NC(=O)CCCCCCCCCCCCCCCCC(=O)O)C(=O)O)C(=O)N[C@@H](CCC(N)=O)C(=O)N[C@H](C(=O)N[C@@H](CC(C)C)C(=O)N[C@@H](CC(C)C)C(=O)N[C@@H](CCCCN)C(=O)N[C@@H](CCC(N)=O)C(=O)N[C@@H](CCC(=O)O)C(=O)N[C@@H](CCCNC(=N)N)C(=O)N[C@@H](CCC(N)=O)C(=O)N[C@@H](CCCCN)C(=O)N[C@@H](CCCCN)C(=O)NC(C)(C)C(=O)N[C@@H](CCCNC(=N)N)C(=O)N[C@@H](CCC(=O)O)C(=O)N[C@@H](CCC(N)=O)C(=O)N[C@@H](C)C(=O)N[C@@H](CCC(=O)O)C(=O)N[C@H](C(=O)N[C@@H](CC(N)=O)C(=O)N[C@@H](CCCCN)C(=O)N[C@@H](CCCNC(=N)N)C(=O)N[C@H](C(=O)N[C@@H](CC(C)C)C(=O)N[C@@H](CCC(=O)O)C(=O)N[C@@H](CCCNC(=N)N)C(=O)N[C@H](C(N)=O)C(C)C)[C@@H](C)CC)[C@@H](C)O)[C@@H](C)CC)[C@@H](C)CC)C(C)C)C(C)C

biological target: human corticotropin-releasing factor 2α (CRF2 α receptor) (human), Q13324; test: cell-based or functional assay
Sequence (Q13324 20-411): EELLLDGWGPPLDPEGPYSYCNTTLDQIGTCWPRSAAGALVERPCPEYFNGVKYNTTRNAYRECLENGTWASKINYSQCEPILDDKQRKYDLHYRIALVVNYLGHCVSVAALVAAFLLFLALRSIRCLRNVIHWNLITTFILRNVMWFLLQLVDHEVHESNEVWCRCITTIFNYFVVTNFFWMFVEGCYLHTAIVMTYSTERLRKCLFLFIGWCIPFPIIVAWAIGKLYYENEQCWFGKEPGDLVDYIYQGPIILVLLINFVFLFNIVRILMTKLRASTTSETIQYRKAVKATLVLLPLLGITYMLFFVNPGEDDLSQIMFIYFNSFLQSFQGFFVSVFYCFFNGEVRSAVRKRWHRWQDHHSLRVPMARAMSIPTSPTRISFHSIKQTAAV

Binder	EC50 [nM], 0% HSA [nM]	EC50 [nM], 0.1% HSA [nM]
B1	1.46	96.9
B2	0.11	4.36
B3	0.18	8.17
B4	0.29	14.3
B5	0.3	
B6	0.06	2.54
